Laboratory results reported in PMC6508567.

Assays:
[1] = target: β-amylase WT (barley (Hordeum vulgare) cv. Harrington) (UniProt P16098)
[2] = target: β-amylase WT (barley (Hordeum vulgare) cv. Harrington) (UniProt P16098); assay: SPR; β-amylase immobilised by amine coupling on a CM5 chip, serpin Z4 injected at 0.6, 0.5, 0.4, 0.3 and 0.2 μM; PBS; Biacore T200
[3] = target: β-amylase WT (barley (Hordeum vulgare) cv. Harrington) (UniProt P16098); assay: MST; β-amylase labelled with an NHS-ester fluorescent dye (70 nM), unlabelled serpin Z4 from 40 μM to 1 nM; PBS with 0.1% Tween-20; Monolith NT.115; three replicates combined
[4] = target: β-amylase WT (barley (Hordeum vulgare) cv. Harrington) (UniProt P16098); remark: listed apart in the source
[5] = target: β-amylase WT (barley (Hordeum vulgare) cv. Harrington) (UniProt P16098); remark: listed apart in the source
[6] = target: chymotrypsin

B1: serpin Z4 (natural protein)
chain: MATTLATDVRLSIAHQTRFALRLRSAISSNPERAAGNVAFSPLSLHVALSLITAGAAATRDQLVAILGDGGAGDAKELNALAEQVVQFVLANESSTGGPRIAFANGIFVDASLSLKPSFEELAVCQYKAKTQSVDFQHKTLEAVGQVNSWVEQVTTGLIKQILPPGSVDNTTKLILGNALYFKGAWDQKFDESNTKCDSFHLLDGSSIQTQFMSSTKKQYISSSDNLKVLKLPYAKGHDKRQFSMYILLPGAQDGLWSLAKRLSTEPEFIENHIPKQTVEVGRFQLPKFKISYQFEASSLLRALGLQLPFSEEADLSEMVDSSQGLEISHVFHKSFVEVNEEGTEAGAATVAMGVAMSMPLKVDLVDFVANHPFLFLIREDIAGVVVFVGHVTNPLISA
Vmax of β-amylase with serpin Z4 at a 1:5 molar ratio (Lineweaver-Burk), with or without DTT [1]: 2 fold
Kd [2]: 142 nM
Kd [3]: 200 nM
β-amylase activity (DNSA) over 37-62°C with serpin Z4 at 1:5; at 50°C against β-amylase alone at optimal temperatures [4]: 60%
EC50 of serpin Z4 for the enhancement of β-amylase activity, Betamyl-3 method [5]: 180 nM
EC50 of serpin Z4 for the enhancement of β-amylase activity, DNSA method [5]: 300 nM

B2: serpin BsZx (natural protein)
chain: MATTDIRLSIAHQTRFAVRLASAISSPSHAKGSSGNAAFSPLSLHVALSLVAAGAAATRDQLAATLGAAEKGDAEGLHALAEQVVQVVLADASGAGGPRSFANVFVDSSLKLKPSFKDLVVGKYKGETQSVDFQTKAPEVAGQVNSWVEKITTGLIKEILPAGSVDSTTRLVLGNALYFKGSWTEKFDASKTKDEKFHLLDGSSVQTPFMSSTKKQYISSYDSLKVLKLPYQQGGDKRQFSMYILLPEAQDGLWNLANKLSTEPEFMEKHMPMQKVPVGQFKLPKFKISFGFEASDMLKGLGLQLPFSSEADLSEMVDSPAARSLYVSSVFHKSFVEVNEEGTEAAARTARVVTLRSLPVEPVKVDFVADHPFLFLIREDLTGVVLFVGHVFNPLVSA
inhibition factor X inh from the residual peptidase activity of chymotrypsin on casein, serpin:protease 2:1 [6]: 0.88
